We go through one molecule from US20210371863, “HIGH EFFICIENCY APTAMER COMPLEX COMPRISING BRANCHED DNA AND APTAMER, AND USE THEREOF” (POSTECH ACADEMY-INDUSTRY FOUNDATION, published 2021).

The data set concerns the target VEGF (hVEGF) (Homo sapiens, UniProt P15692-4 P15692-4:27-191). Description: ELISA; remarkable capture efficiency after 4 h at room temperature, PD-10 column filtration; but p70 (FIG. 9) reports OA captured little hVEGF independent of serum incubation time. The note with it: quantified with hVEGF ELISA kit (Komabiotech); chain copies: 2; hairpin. The method, then: To confirm the hVEGF capture ability of OA, AA, and CA, each prepared sample was mixed with hVEGF solution for 4 hours at room temperature, and the mixed solution was filtered through a PD-10 column (Sephadex G-25, GE Healthcare, Sweden). The amount of non-purified hVEGF was measured by the hVEGF enzyme-linked immunosorbent assay kit (ELISA kit, Komabiotech) according to the manufacturer's guidelines (absorbance measurement at 490 nm by VICTOR3 V™ (Multilabel Counter, Perkin Elmer, Wellesley, Mass., USA)). The hVEGF capture ability of other samples such as OSc, ASc, and CSc was measured in the same way, and the results are shown in FIG. 10.

Sequence of VEGF (hVEGF) (P15692 other isoform, or with tags, fused parts or gaps): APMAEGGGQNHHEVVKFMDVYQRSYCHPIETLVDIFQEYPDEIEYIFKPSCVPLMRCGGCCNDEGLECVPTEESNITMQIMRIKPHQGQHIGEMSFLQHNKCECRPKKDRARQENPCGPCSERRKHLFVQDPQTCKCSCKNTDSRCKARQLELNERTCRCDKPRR

B1: OA (oligomeric hVEGF aptamer, Y_Vapt) (ssDNA)
DNA: AGCTTCAGGCGAGGAGCCCACCCCGTCTTCCAGACAAGAGTGCAGGGGTGGCGAGGAGCGGACA
Regarding B1, the binding result is given as “binds”.
